US8906356 (MIT, dated 2014)

T1: IL-2 receptor α subunit (IL-2Rα, CD25) on Kit225 cells (human, UniProt P01589 22-272)
T1 construct: whole, on cells; Kit225 cells express all three IL-2 receptor subunits, with IL-2Rα in ~10 fold excess; also called p55
T1 sequence (looked up): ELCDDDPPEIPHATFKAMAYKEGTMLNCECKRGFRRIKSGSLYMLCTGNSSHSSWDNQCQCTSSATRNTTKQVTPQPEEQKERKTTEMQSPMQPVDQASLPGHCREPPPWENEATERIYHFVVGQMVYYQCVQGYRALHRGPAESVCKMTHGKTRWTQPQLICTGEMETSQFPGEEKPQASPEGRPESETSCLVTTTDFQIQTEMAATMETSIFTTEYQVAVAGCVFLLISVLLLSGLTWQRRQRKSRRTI

T2: IL-2 receptor (IL-2Rα, IL-2Rβ and IL-2Rγ) on cells (human, UniProt P01589 22-272; P14784 27-551; P31785 23-369)
T2 sequence (looked up) 1: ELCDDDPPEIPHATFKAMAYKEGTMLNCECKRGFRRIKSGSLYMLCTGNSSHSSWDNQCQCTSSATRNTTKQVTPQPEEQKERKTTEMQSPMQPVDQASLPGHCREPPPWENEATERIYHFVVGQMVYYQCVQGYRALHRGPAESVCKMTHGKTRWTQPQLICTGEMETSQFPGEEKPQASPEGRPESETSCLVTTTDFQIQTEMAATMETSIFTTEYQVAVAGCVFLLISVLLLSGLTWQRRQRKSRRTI
T2 sequence (looked up) 2: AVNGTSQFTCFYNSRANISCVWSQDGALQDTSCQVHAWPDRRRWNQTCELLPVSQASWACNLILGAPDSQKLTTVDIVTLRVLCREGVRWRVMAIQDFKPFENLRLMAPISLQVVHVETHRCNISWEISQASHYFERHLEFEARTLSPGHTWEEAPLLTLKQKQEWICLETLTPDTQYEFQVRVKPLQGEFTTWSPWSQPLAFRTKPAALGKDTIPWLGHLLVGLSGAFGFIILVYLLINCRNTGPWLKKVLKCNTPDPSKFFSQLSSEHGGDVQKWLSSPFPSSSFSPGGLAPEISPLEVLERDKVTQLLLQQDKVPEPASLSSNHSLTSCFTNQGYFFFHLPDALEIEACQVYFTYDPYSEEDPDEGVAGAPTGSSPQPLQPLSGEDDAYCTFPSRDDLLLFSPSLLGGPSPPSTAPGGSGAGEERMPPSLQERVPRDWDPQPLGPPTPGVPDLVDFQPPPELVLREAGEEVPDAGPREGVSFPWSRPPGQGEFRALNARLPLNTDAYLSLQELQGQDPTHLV
T2 sequence (looked up) 3: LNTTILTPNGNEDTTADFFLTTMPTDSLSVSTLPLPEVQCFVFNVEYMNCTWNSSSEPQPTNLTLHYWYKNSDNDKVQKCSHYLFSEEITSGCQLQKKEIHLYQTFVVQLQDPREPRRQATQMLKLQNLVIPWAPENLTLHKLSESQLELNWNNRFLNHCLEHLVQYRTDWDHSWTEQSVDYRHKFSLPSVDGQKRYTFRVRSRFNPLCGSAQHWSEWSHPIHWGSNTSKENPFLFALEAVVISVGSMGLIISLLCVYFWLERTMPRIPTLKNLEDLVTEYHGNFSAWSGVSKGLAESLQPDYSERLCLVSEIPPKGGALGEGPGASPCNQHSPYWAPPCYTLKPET


Experiments:
[1] = molecular target: T1, IL-2 receptor α subunit (IL-2Rα, CD25) …; assay: cell surface titration on Kit225 cells, flow cytometry with anti-FLAG detection
Description: Determination of IL-2Rα binding affinities of IL-2 mutants. […] At low IL-2 mutant concentrations, the total volume was increased to maintain an excess number of IL-2 mutant molecules over the number of IL-2Rα. After incubation, cells were kept on ice and stained with mouse anti-FLAG monoclonal antibody M2 (Sigma Aldrich, St. Louis, Mo.), followed by an Alexa Fluor 488 conjugated goat anti-mouse antibody (Invitrogen, Carlsbad, Calif.), to detect cell-surface bound protein. The mean single-cell fluorescence was measured, and the dissociation constant (K_D) and the 95% confidence interval were determined as previously described, using the following equation: Fobs = cL_0/(K_D + L_0), where $Fobs$ is the background-corrected mean fluorescence, L_0 is the initial concentration of the protein being measured, and c is the proportionality constant.
The IL-2Rα binding affinity of the IL-2 mutants was measured in using Kit225 cells, a human T cell line that is dependent on IL-2 for growth. Kit225 constitutively expresses all three subunits of the IL-2 receptor, with IL-2Rα in ~10 fold excess. The IL-2Rα binding affinity was measured using cell surface titrations on Kit225.

[2] = molecular target: T2, IL-2 receptor (IL-2Rα, IL-2Rβ and …); assay: cell-based or functional assay
[3] = molecular target: T1, IL-2 receptor α subunit (IL-2Rα, CD25) …; assay: cell surface titration on Kit225 cells (method not restated for the double mutant)

| Kd [1] | IC50 of inhibition of STAT5 phosphorylation in Kit225 cells with 25 pM wild type IL-2 [2] | Kd [3] | Binder |
| --- | --- | --- | --- |
| 0.109 nM | 1.9 nM |  | Q126T (2-4 IL-2 with a Q126T point mutation) (ligand) APTSSSTKKTQLQLEHLLLDLQMILNGISNHKNPRLARMLTFKFYMPEKATELKHLQCLEEELKPLEEALRLAPSKNFHLRPRDLISDVNVIVLELKGSETTFMCEYADETATIVEFLNRWITFCTSIISTLT |
| 0.199 nM |  |  | 2-4 IL-2 (engineered mutant of human IL-2 with high affinity for IL-2Rα) (ligand) APTSSSTKKTQLQLEHLLLDLQMILNGISNHKNPRLARMLTFKFYMPEKATELKHLQCLEEELKPLEEALRLAPSKNFHLRPRDLISDVNVIVLELKGSETTFMCEYADETATIVEFLNRWITFCQSIISTLT |
| 0.119 nM | 2.4 nM |  | V91R (2-4 IL-2 with a V91R point mutation) (ligand) APTSSSTKKTQLQLEHLLLDLQMILNGISNHKNPRLARMLTFKFYMPEKATELKHLQCLEEELKPLEEALRLAPSKNFHLRPRDLISDVNRIVLELKGSETTFMCEYADETATIVEFLNRWITFCQSIISTLT |
|  |  | 2 nM | Q126T/V91R double mutant (ligand) APTSSSTKKTQLQLEHLLLDLQMILNGISNHKNPRLARMLTFKFYMPEKATELKHLQCLEEELKPLEEALRLAPSKNFHLRPRDLISDVNRIVLELKGSETTFMCEYADETATIVEFLNRWITFCTSIISTLT |
